The experiment addresses T1, human OPGbp [143-317] (human, UniProt O14788 143-317).
T1 construct: also called OPGL
T1 sequence (looked up): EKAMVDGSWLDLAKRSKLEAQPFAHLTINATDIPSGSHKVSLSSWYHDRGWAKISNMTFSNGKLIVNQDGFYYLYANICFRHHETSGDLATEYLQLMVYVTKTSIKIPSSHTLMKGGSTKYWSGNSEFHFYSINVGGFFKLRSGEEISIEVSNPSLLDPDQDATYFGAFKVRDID
Briefly: SPR (BIAcore), immobilized OPGbp [143-317].

B1: “AT” antibody variant N98A (heavy chain CDR3) (antibody, name in Kabat numbering, V domains shown)
VH: QVQLVQSGAEVRKPGASVKVSCKASGYDFSNYAIHWVRQAPGQRLEWMGWINAGNGNTKFSQKFQGRITVTRDTAASTAYMELRSLRSEDTAVYYCARDSSAMVRGIIIAYYFDYWGQGTLVTVSS
VL: EIVMTQSPSSLSASVGDRVTITCRASQSISRYLNWYQLKPGKAPRLLIYGASSLQSGVPSRFSGSGSGAEFTLTISSLQPEDIATYYCQHTRAFGQGTKVEIKR
notes: not shown: human IgG1 CH1, hinge, CH2 and CH3
With B1, the affinity, expressed as Kd, was 0.67 nM; the koff worked out at 0.0009 s⁻¹; the association rate constant (kon) turned out to be 1.3e+06 M⁻¹ s⁻¹.

B2: “AT” antibody variant S96A, S97A (heavy chain CDR3) (antibody, name in Kabat numbering, V domains shown)
VH: QVQLVQSGAEVRKPGASVKVSCKASGYDFSNYAIHWVRQAPGQRLEWMGWINAGNGNTKFSQKFQGRITVTRDTAASTAYMELRSLRSEDTAVYYCARDAANMVRGIIIAYYFDYWGQGTLVTVSS
VL: EIVMTQSPSSLSASVGDRVTITCRASQSISRYLNWYQLKPGKAPRLLIYGASSLQSGVPSRFSGSGSGAEFTLTISSLQPEDIATYYCQHTRAFGQGTKVEIKR
notes: as for B1
B2 displayed a Kd of 8.9 nM, a koff of 0.00284 s⁻¹ and a kon of 317000 M⁻¹ s⁻¹.

B3: “AT” antibody variant S96A, N98A (heavy chain CDR3) (antibody, name in Kabat numbering, V domains shown)
VH: QVQLVQSGAEVRKPGASVKVSCKASGYDFSNYAIHWVRQAPGQRLEWMGWINAGNGNTKFSQKFQGRITVTRDTAASTAYMELRSLRSEDTAVYYCARDASAMVRGIIIAYYFDYWGQGTLVTVSS
VL: EIVMTQSPSSLSASVGDRVTITCRASQSISRYLNWYQLKPGKAPRLLIYGASSLQSGVPSRFSGSGSGAEFTLTISSLQPEDIATYYCQHTRAFGQGTKVEIKR
notes: as for B1
As for B3, the binding result was “no binding”.

B4: “AT” antibody variant S96A (heavy chain CDR3) (antibody, name in Kabat numbering, V domains shown)
VH: QVQLVQSGAEVRKPGASVKVSCKASGYDFSNYAIHWVRQAPGQRLEWMGWINAGNGNTKFSQKFQGRITVTRDTAASTAYMELRSLRSEDTAVYYCARDASNMVRGIIIAYYFDYWGQGTLVTVSS
VL: EIVMTQSPSSLSASVGDRVTITCRASQSISRYLNWYQLKPGKAPRLLIYGASSLQSGVPSRFSGSGSGAEFTLTISSLQPEDIATYYCQHTRAFGQGTKVEIKR
notes: as for B1
Regarding B4, the Kd was found to be 2.5 nM, the dissociation rate constant (koff) was found to be 0.00064 s⁻¹ and the on-rate (kon) was 260000 M⁻¹ s⁻¹.

B5: “AT” antibody variant S97A, N98A (heavy chain CDR3) (antibody, name in Kabat numbering, V domains shown)
VH: QVQLVQSGAEVRKPGASVKVSCKASGYDFSNYAIHWVRQAPGQRLEWMGWINAGNGNTKFSQKFQGRITVTRDTAASTAYMELRSLRSEDTAVYYCARDSAAMVRGIIIAYYFDYWGQGTLVTVSS
VL: EIVMTQSPSSLSASVGDRVTITCRASQSISRYLNWYQLKPGKAPRLLIYGASSLQSGVPSRFSGSGSGAEFTLTISSLQPEDIATYYCQHTRAFGQGTKVEIKR
notes: as for B1
Turning to B5, the binding result is on record as “no binding”.

B6: “AT” antibody variant S96A, S97A, N98A (heavy chain CDR3) (antibody, name in Kabat numbering, V domains shown)
VH: QVQLVQSGAEVRKPGASVKVSCKASGYDFSNYAIHWVRQAPGQRLEWMGWINAGNGNTKFSQKFQGRITVTRDTAASTAYMELRSLRSEDTAVYYCARDAAAMVRGIIIAYYFDYWGQGTLVTVSS
VL: EIVMTQSPSSLSASVGDRVTITCRASQSISRYLNWYQLKPGKAPRLLIYGASSLQSGVPSRFSGSGSGAEFTLTISSLQPEDIATYYCQHTRAFGQGTKVEIKR
notes: as for B1
As to B6, the binding result was “no binding”.

B7: “AT” antibody variant S97A (heavy chain CDR3) (antibody, name in Kabat numbering, V domains shown)
VH: QVQLVQSGAEVRKPGASVKVSCKASGYDFSNYAIHWVRQAPGQRLEWMGWINAGNGNTKFSQKFQGRITVTRDTAASTAYMELRSLRSEDTAVYYCARDSANMVRGIIIAYYFDYWGQGTLVTVSS
VL: EIVMTQSPSSLSASVGDRVTITCRASQSISRYLNWYQLKPGKAPRLLIYGASSLQSGVPSRFSGSGSGAEFTLTISSLQPEDIATYYCQHTRAFGQGTKVEIKR
notes: as for B1
With B7, the Kd is 2.9 nM, the koff is 0.0015 s⁻¹ and the association rate constant (kon) is 530000 M⁻¹ s⁻¹.

The values above are taken from patent US20140147444A1 (published 2014).
